Legend:
新冠病毒RBD抗原 (表达的RBD蛋白) = 新冠病毒RBD抗原 (表达的RBD蛋白) (SARS-CoV-2, UniProt P0DTC2 319-541)
RBD-tag1 = RBD-tag1 (SARS-CoV-2, UniProt P0DTC2 319-541)

B1: 23D52 (antibody, V domains shown)
VH: EVQLVESGGGLVQPGGSLRLSCAASGITVSSNYMNWVRQAPGKGLEWVSVLYSGGSTDYADSVKGRFTISRDNSKNTLYLQMNSLRAEDTAVYYCARDLVVYGMDVWGQGTTVTVSS
VL: DIQLTQSPSFLSASVGDRVTITCRASQGISSYLAWYQQTPGKAPKLLIYAASTLQSGVPSRFSGSGSGTEFTLTISSLQPEDFATYYCQQLNSYPFTFGPGTKVHIK
notes: also called 抗人新冠病毒抗体23D52
Work on B1 yielded an EC50 (新冠病毒RBD抗原 (表达的RBD蛋白)) of 0.0299 µg/mL and an IC50 (RBD-tag1) of 0.111 µg/mL.

— patent publication CN112500481A (SHANXI PROVINCIAL PEOPLES HOSPITAL, dated 2021)
